Results published in PMC5535997 (International Journal of Molecular Sciences, 2017).

B1: C8 displayed on S. aureus RN4220 (VHH)
VHH: QVHSWSLGGGLVQSGGSLTLSCAASGFTFTNAYMSWVRQGPGKEPEWVSGINARGVGTRYADFVKGRFTISRDNAKTILYLQMNSLKPEDTALYYCASDFGPSGGRWDPPRRRGQGTWVTVSS
B2: VHH54.1 displayed on S. aureus RN4220 (VHH)
VHH: QVQLVESGGGLVQAGASLRLSCATSGRTLSGYAMGWFRQAPGKERELTAAISWSGISTYYTDSVKGRFTISRDNAKNTVYLQMNSLNSEDTGVYYCVADVGWPLRADRGSWGQGTQVTISS
notes: also called anti-NP-VHH4
B3: VHH52 displayed on S. aureus RN4220 (VHH)
VHH: QVQLQESGGGLVQAGGSLRLTCALSERTSTSYAQGWFRQPPGKEREFVASLRTHDGNTHYTDSVKGRFTISRDNAENTLYLQMNSLKTEDTAVYYCAASLGYSGAYASGYDYWGQGTQVTVSS
notes: also called anti-NP-VHH1
B4: D4 displayed on S. aureus RN4220 (VHH)
VHH: QLQLVETGGGLVQSGGSLRLSCAASGFTLGSYAIGWYRQAPGKERERVSCISSSGISTNYADPVKGRFTISRDNAKNTVYLQMDSLKPEDTAVYYCAADSFFCLGPNMDYWGKGTLVIVSS
notes: also called anti-NP-VHH5
B5: VHH54 displayed on S. aureus RN4220 (VHH)
VHH: QVQLQESGGGLVQAGGSLRLSCAASGRTLSSYAMGWFRQAPGKERELVSAISWSGLSTYYEDSVKGRFTISRDNAKNTMYLQMNSLKPEDTAIYYCAADIGWPLRADSGSWGQGTQVTVSS
notes: also called anti-NP-VHH2
B6: VHH52.1 displayed on S. aureus RN4220 (VHH)
VHH: QLQLVESGGGLVQAGGSLRLSCAASGSTFSNYAMGWFRQAPGKEREFVASIRWIGGSTRYADSVKGRFTTSRDNAKNALYLQMNSLKTEDTAVYYCAASLGYSASYASGYDYWGQGTQVTVSS
notes: also called anti-NP-VHH6
B7: VHH62 displayed on S. aureus RN4220 (VHH)
VHH: QVQLVESGGGLVQPGGSLRLSCAASGFTLDGYAIGWFRQAPGKEREGVSCISSSGKSTNYADSVKGRFTISRDNQQNTVYLQMNSLKPEDTAVYYCAATVGLFCVGGTYGMDYWGKGTLVKMSS
notes: also called anti-NP-VHH3

The binders below were run against influenza A virus nucleoprotein (NP), strain A/WSN/33, from infected MDCK cells (Influenza A virus A/WSN/1933 (H1N1), [35S]Met/Cys radiolabel) (assay: pull-down). Details: partners not purified.
Sequence of influenza A virus nucleoprotein (NP), strain A/WSN/33, from infected MDCK cells (Influenza A virus A/WSN/1933 (H1N1), [35S]Met/Cys radiolabel) (P15682 whole entry): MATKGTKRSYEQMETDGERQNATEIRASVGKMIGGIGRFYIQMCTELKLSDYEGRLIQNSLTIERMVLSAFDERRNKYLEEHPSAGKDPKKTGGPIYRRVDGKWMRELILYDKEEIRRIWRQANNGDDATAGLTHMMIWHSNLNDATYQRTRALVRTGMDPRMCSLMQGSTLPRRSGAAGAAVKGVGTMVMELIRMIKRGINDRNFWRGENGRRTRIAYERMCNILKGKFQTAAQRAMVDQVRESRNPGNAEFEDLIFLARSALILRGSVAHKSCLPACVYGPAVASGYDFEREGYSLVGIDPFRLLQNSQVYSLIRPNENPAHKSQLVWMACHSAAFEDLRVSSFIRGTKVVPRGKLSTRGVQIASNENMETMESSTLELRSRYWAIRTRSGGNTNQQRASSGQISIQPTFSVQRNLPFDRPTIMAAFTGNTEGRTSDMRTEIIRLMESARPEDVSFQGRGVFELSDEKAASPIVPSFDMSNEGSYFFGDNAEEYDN
B1: binds.
B2: binds.
B3: binds.
B4: binds.
B5: binds.
B6: binds.
B7: binds.
